Paper PMC12286842

Molecular target: Flag–UBR4 (UBR4 tagged at its endogenous locus) (human (endogenous in HEK293T)) (UniProt Q5T4S7)
Assay: cryo-EM structure; endogenous SIFI immunoprecipitated through tagged UBR4 from HEK293T and run on Superose 6 SEC; the complex formed in cells and was co-purified; single-particle cryo-EM, AF2 models fitted in low-resolution regions

Sequence of Flag–UBR4 (UBR4 tagged at its endogenous locus), Q5T4S7-1 1-5183 (enzyme) (Q5T4S7 whole entry): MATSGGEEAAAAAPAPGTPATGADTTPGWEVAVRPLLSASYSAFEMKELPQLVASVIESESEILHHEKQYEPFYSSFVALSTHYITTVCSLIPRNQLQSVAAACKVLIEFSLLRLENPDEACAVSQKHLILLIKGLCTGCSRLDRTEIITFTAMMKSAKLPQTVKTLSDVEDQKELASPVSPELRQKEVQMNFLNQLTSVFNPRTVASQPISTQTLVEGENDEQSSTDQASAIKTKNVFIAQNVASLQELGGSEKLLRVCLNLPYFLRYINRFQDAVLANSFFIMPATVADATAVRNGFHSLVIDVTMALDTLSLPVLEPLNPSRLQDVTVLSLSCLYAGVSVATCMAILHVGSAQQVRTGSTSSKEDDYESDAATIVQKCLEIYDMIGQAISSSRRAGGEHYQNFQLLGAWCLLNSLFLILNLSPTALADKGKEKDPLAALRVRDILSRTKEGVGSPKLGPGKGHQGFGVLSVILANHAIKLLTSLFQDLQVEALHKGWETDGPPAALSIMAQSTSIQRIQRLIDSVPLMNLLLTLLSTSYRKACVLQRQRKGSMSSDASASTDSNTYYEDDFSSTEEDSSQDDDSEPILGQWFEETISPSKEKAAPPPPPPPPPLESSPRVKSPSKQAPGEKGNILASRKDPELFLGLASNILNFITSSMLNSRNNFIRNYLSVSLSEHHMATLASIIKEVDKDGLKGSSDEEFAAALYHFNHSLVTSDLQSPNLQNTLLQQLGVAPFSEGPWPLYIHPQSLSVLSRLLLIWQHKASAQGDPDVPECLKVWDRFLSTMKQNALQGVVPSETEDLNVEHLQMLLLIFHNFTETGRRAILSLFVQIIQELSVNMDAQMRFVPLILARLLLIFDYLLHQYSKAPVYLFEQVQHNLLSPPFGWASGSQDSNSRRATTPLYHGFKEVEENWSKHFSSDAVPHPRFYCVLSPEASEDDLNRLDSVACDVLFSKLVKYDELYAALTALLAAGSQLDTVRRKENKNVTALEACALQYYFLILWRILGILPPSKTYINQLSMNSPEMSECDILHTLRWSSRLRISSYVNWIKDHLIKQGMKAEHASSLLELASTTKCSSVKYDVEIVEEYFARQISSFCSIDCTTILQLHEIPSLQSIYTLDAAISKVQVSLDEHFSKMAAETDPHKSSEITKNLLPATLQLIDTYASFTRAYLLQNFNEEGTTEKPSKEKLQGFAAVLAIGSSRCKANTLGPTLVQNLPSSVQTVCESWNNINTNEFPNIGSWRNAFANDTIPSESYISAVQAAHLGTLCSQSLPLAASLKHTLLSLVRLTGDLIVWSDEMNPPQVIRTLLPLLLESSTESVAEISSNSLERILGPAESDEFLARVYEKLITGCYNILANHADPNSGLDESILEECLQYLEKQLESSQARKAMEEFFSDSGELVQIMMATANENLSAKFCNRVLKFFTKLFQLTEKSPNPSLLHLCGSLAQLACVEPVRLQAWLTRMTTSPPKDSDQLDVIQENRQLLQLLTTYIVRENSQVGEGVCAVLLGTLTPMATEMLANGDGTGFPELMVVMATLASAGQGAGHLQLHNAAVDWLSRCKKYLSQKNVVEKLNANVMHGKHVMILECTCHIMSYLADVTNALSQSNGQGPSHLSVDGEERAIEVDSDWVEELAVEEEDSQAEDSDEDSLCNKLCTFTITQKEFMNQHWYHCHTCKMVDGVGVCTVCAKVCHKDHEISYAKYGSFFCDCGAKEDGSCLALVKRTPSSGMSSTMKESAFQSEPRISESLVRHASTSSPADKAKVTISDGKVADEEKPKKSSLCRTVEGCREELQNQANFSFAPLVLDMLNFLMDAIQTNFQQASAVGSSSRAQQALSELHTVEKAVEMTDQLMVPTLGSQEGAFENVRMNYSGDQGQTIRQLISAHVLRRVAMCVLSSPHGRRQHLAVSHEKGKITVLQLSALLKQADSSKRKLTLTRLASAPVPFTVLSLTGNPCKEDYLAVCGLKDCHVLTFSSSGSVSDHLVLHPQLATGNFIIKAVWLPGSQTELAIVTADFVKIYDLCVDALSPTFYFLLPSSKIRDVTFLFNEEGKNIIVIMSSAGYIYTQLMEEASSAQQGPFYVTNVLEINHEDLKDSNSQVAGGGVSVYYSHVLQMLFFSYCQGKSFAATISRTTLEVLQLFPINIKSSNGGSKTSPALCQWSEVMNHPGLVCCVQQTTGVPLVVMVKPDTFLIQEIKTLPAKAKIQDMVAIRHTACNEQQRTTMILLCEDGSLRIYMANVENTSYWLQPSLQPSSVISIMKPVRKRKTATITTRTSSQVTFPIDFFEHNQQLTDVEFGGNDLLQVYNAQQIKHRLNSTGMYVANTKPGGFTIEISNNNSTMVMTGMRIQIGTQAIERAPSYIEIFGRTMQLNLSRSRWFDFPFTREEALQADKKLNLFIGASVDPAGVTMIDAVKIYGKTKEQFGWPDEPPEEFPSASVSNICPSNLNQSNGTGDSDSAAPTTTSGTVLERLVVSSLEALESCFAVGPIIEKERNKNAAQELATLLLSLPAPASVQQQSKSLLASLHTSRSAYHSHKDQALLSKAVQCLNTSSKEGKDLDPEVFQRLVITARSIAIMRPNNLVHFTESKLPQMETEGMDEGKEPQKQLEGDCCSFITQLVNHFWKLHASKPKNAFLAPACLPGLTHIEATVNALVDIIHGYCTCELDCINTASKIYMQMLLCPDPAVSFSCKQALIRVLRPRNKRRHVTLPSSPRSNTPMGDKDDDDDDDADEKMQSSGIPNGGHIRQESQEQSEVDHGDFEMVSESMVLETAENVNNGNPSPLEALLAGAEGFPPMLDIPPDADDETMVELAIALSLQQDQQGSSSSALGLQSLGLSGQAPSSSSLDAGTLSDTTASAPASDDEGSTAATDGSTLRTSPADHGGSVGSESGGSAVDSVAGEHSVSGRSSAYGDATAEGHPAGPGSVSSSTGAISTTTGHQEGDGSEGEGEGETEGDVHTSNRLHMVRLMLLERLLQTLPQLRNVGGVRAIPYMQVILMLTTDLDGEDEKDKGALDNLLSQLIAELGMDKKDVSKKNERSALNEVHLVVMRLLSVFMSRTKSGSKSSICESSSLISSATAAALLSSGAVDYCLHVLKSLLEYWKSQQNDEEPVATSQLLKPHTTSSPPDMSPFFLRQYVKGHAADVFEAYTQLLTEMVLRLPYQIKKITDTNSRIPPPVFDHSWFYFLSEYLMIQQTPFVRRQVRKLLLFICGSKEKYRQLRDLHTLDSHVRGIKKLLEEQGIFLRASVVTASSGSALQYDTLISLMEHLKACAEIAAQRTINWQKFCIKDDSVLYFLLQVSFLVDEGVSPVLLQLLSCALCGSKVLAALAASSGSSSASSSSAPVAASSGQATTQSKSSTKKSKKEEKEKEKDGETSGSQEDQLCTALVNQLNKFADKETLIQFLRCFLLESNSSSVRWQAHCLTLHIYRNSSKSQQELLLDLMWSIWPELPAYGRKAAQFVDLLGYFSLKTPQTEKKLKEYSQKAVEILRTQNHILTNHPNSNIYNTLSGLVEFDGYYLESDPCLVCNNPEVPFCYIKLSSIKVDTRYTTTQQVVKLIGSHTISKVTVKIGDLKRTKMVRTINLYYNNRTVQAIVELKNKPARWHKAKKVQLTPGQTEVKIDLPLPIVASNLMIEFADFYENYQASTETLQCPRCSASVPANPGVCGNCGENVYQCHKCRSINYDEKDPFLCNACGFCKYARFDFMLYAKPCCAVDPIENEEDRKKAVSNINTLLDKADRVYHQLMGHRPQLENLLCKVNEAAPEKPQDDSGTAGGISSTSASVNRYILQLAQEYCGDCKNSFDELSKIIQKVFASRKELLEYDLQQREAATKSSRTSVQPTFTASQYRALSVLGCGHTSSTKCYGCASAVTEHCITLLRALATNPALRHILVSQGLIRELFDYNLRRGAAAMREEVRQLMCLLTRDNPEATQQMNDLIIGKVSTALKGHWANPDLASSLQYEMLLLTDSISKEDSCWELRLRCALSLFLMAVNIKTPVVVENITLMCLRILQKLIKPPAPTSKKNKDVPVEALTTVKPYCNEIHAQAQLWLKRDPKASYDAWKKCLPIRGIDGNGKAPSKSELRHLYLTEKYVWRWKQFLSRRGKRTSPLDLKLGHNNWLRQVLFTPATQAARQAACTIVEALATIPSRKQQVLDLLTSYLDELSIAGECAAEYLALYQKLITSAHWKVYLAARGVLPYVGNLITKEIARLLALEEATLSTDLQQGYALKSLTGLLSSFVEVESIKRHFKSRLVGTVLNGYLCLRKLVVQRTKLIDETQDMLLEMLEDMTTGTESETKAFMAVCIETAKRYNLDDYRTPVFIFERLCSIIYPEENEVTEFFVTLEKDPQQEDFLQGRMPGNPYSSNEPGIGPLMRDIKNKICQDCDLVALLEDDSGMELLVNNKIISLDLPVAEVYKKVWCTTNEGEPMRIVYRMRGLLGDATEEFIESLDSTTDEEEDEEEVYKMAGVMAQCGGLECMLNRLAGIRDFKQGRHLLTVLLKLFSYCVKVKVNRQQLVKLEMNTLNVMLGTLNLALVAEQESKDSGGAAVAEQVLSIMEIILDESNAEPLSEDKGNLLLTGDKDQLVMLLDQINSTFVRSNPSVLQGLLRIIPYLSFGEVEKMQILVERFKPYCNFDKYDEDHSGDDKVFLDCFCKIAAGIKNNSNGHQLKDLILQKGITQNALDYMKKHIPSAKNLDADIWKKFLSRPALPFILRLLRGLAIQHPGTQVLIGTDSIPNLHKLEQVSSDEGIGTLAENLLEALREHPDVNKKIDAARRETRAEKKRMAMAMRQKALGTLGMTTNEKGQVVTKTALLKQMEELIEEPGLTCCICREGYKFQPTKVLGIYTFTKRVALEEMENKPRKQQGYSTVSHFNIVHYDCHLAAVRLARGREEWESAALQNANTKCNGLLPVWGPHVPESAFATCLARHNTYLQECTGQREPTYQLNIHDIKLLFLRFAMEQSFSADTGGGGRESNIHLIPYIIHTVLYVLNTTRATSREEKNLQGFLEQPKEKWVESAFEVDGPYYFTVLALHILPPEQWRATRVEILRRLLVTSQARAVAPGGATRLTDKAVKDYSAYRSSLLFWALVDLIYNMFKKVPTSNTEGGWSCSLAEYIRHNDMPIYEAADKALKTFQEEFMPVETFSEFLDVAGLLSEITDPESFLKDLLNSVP

- stoichiometry N: 2
Substance: Flag–UBR4 (UBR4 tagged at its endogenous locus), Q5T4S7-1 1-5183 (enzyme)
